Experimental data taken from US20110020273A1 (published 2011).

Target: T1, CD20 (human, UniProt P11836 1-297)
T1 sequence (looked up): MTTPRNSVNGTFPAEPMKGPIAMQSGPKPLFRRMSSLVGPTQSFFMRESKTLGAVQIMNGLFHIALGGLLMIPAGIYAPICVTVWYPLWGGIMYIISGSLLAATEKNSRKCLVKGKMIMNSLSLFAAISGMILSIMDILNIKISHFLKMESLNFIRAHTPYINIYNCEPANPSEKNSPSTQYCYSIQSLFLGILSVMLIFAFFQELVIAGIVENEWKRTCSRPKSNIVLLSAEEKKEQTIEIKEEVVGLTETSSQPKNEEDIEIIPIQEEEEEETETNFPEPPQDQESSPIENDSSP
Test: cell-based or functional assay

- EC50, in vitro proliferation of Jeko-1 cells: 1.5 nM
B1: veltuzumab (antibody, V domains shown)
VH: QVQLQQSGAEVKKPGSSVKVSCKASGYTFTSYNMHWVKQAPGQGLEWIGAIYPGMGDTSYNQKFKGKATLTADESTNTAYMELSSLRSEDTAFYYCARSTYYGGDWYFDVWGQGTTVTVSS
VL: DIQLTQSPSSLSASVGDRVTMTCRASSSVSYIHWFQQKPGKAPKPWIYATSNLASGVPVRFSGSGSGTDYTFTISSLQPEDIATYYCQQWTSNPPTFGGGTKLEIK
